The record followed here is paper PMC10338342 (2023).

Assay [1] addresses T1, nucleosome core particle: human histone octamer (H2A, H2B, H3.1, H4) wrapped by DNA (human, UniProt P04908 1-130; P06899 1-126; P68431 1-136; P62805 1-103). The assay is described as follows: FRET; NCP SHL-6.2; competition with His-MYC-MAX (800 nM).
In assay [2] the target is T1, nucleosome core particle: human histone …. Briefly: FRET; NCP SHL+5.8; competition with His-MYC-MAX (625 nM).

B1: CLOCK-BMAL1 bHLH PAS-AB heterodimer with BMAL1 R173A (complex)
chain 1: VEEDDKDKAKRVSRNKSEKKRRDQFNVLIKELGSMLPGNARKMDKSTVLQKSIDFLRKHKETTAQSDASEIRQDWKPTFLSNEEFTQLMLEALDGFFLAIMTDGSIIYVSESVTSLLEHLPSDLVDQSIFNFIPEGEHSEVYKILSTHLLESDSLTPEYLKSKNQLEFCCHMLRGTIDPKEPSTYEYVRFIGNFKSLTSVSTSTHNGFEGTIQRTHRPSYEDRVCFVATVRLATPQFIKEMCTVEEPNEEFTSRHSLEWKFLFLDHRAPPIIGYLPFEVLGTSGYDYYHVDDLENLAKCHEHLMQYGKGKSCYYRFLTKGQQWIWLQTHYYITYHQWNSRPEFIVCTHTVVSYAEVRAERRRELGIEESL
chain 2: not shown
What is called IC50 is the concentration needed to halve the response being measured. B1 gave an IC50 in assay [1] greater than 3000 nM.

B2: CLOCK-BMAL1 bHLH PAS-AB heterodimer with BMAL1 Q385A (complex)
chain 1: B1 chain 1
chain 2: not shown
In assay [1], B2 had an IC50 greater than 3000 nM.

B3: CLOCK-BMAL1 bHLH PAS-AB heterodimer (complex)
chain 1: B1 chain 1
chain 2: not shown
For the molecule B3, the IC50 in assay [1] amounted to 1180 nM; in assay [2] it was 2320 nM.
